Columns and labels:
[1] = system: PRC2-5m SUZ12 S583A (HEK293T) (human); assay: EMSA; settings: EMSA: 0.5 nM nucleosome, PRC2-5m 2-fold dilutions from 2 uM, 10 mM Tris 8.0, 50 mM NaCl, 10% glycerol, on ice 30 min; 4% native gel, 1x TGE, SYBR Gold
[2] = target: mononucleosome (Xenopus laevis histone octamer on 147-bp 601 DNA) (Xenopus laevis); assay: native gel or EMSA; 0.5 nM nucleosomes with PRC2-5m (2-fold serial dilution from 2 μM), 10 mM Tris 8.0, 50 mM NaCl, 10% glycerol, on ice 30 min; 4% native polyacrylamide gel, SYBR Gold

Row | fold reduction of the nucleosome binding affinity against the WT complex [2] [fold] | Substance | binding signal (fold higher Kd than WT) [1]
1 |  | 601 mononucleosome, 147 bp | 2
2 | 2 | PRC2-5m (EZH2–EED–SUZ12–RBBP4–AEBP2) containing the S583A mutation of SUZ12, expressed in HEK293T cells (from UniProt Q15910 1-746; O75530 1-441; Q15022 1-739; Q09028 1-425; Q6ZN18 1-295) (complex) | 
